# Assay results reported in article PMC7471176.
# Key:
# [1] = target: Casein (Hammerstein casein)
# [2] = target: Casein (Hammerstein casein); remark: listed apart in the source
substance,measurement,setting,value
KP-43 Y195Q (Tyr195Gln) variant (enzyme),"specific caseinolytic activity at pH 10, against that of the Y195W variant",[1],4.4 fold
"KP-43 alkaline serine protease, wild type (enzyme)","specific caseinolytic activity at pH 7, against that at pH 10 (series pH 6 to 10)",[2],90%
KP-43 Y195I (Tyr195Ile) variant (enzyme),"specific caseinolytic activity at pH 6, against that of the Y195R variant",[1],1.8 fold
